Test results: paper PMC10282093, “Structural basis of α1A-adrenergic receptor activation and recognition by an extracellular nanobody” (Nature Communications, 2023)
“And” between values parts separate entries of the source, which are not always exact repeats. Identical values can stand only once.

Legend:
[1] = target: T1, purified α1AAR fused at the C-terminus to an enhanced green fluorescent protein (Homo sapiens, UniProt P35348, N7Q | N13Q | N22Q); assay: flow cytometry on cells; on-yeast titration as a1, in the presence of 500 μM noradrenaline; conditions: one partner purified
T1 construct: α1A-adrenergic receptor, human; Used in the on-yeast titration with or without 500 μM ligand (oxymetazoline, noradrenaline, tamsulosin, phentolamine); not shown: EGFP, C-terminal, kept

[2] = target: T1, purified α1AAR fused at the C-terminus …; assay: flow cytometry on cells; on-yeast titration as a1, in the presence of 500 μM oxymetazoline; conditions: one partner purified
[3] = target: T2, α1AAR (Homo sapiens, UniProt P35348); assay: [3H]prazosin radioligand binding, Sf9 membranes
T2 sequence (P35348 1-370): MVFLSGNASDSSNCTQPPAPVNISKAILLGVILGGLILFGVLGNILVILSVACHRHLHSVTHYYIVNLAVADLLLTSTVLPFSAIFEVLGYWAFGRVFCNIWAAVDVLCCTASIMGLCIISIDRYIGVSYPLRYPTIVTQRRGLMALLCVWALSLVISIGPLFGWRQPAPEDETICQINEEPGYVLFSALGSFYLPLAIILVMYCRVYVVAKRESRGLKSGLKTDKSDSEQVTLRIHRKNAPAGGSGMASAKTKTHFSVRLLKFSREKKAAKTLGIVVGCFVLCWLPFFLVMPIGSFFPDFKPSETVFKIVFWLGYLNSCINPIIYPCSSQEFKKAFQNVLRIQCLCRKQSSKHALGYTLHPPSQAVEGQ
Protocol: After centrifugation, the pellet was homogenized in binding buffer and used as the membrane fraction in binding assays. […] Receptors were incubated for 1 h at room temperature with various concentrations of ligand in a total volume of 100 µl. After the reaction, the mixture was trapped on Whatman GF/B glass filters. Bound and free radioligands were separated by washing with ice-cold binding buffer. Radioactivity was measured on a MicroBeta2 liquid scintillation counter (PerkinElmer).

[4] = target: T3, α1AAR (Homo sapiens, UniProt P35348); assay: Glo-sensor cAMP signaling assay with engineered Gsq protein in HEK293T cells
T3 sequence (P35348 1-466): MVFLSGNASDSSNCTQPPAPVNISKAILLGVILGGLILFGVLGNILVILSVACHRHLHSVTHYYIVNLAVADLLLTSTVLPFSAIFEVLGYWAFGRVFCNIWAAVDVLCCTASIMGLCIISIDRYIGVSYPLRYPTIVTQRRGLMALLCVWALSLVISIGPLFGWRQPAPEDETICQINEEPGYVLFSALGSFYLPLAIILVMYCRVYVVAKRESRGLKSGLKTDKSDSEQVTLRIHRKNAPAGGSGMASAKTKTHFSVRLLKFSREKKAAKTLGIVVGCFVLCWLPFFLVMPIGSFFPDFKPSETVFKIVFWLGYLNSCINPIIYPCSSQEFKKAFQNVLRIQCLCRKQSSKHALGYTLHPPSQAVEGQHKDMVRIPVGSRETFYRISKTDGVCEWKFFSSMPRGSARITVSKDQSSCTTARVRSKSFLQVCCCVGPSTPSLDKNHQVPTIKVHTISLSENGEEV
Protocol: In brief, pGloSensor™−22F plasmid, receptor plasmid, and Gsq plasmid were transfected into HEK293T cells. At 24 h after transfection, the cells were switched into a CO2-Independent Medium (Gibco) and incubated with GloSensor^TM cAMP reagent. The mixture was then transferred to a 96-well white plate. The 96-well plate is placed at 37 °C in the dark for 1 h, then placed at room temperature in the dark for 1 h before use. […] The result curves were calculated and fitted by GraphPad Prism 9.

[5] = target: T3, α1AAR

B1: Nb29 displayed on yeast cells (VHH)
VHH: QVQLQESGGGLVQAGGSLRLSCAASGNISAHWKMGWYRQAPGKEREFVAGIGYANTNYADSVKGRFTISRDNAKNTVYLQMNSLKPEDTAVYYCAAYSYYRDHSYWGQGTQVTVSS
notes: Expression was detected with an anti-HA antibody; also called Nb29-expressing yeast cells
[1]
  Kd: 0.0388 µM
[2]
  Kd: 0.0376 µM

B2: Nb29: synthetic nanobody (single domain antibody) that binds the extracellular vestibule of α1AAR, preferentially oxymetazoline-bound (antibody, V domains shown)
VH: QVQLQESGGGLVQAGGSLRLSCAASGNISAHWKMGWYRQAPGKEREFVAGIGYANTNYADSVKGRFTISRDNAKNTVYLQMNSLKPEDTAVYYCAAYSYYRDHSYWGQGTQVTVSS
[3]; Nb29 Log[M] -4
  [3H]prazosin binding: 69.5661% and 61.694% and 66.6796%
[3]; Nb29 Log[M] -5
  [3H]prazosin binding: 88.6049% and 105.399% and 83.0653%
[3]; Nb29 Log[M] -6
  [3H]prazosin binding: 111.871% and 107.935%
[3]; Nb29 Log[M] -7
  [3H]prazosin binding: 113.212% and 110.763% and 99.0136%
[3]; Nb29 Log[M] -8
  [3H]prazosin binding: 94.5235% and 106.273% and 100.209%
[3]; Nb29 Log[M] -9
  [3H]prazosin binding: 103.737% and 106.273%
[3]; Nb29 Log[M] -10
  [3H]prazosin binding: 99.4509% and 97.7015% and 89.1005%
[3]; Nb29 as competitor
  pKi: 4.39 ± 0.40
[4]
  agonist activity on its own: no agonist activity
  effect on maximum efficacy of α1AAR activation: slightly reduces
[4]; Nb29 alone Log[M] -4
  α1AAR activation (Noradrenaline %): 8.574% and 8.426% and 7.756%
[4]; Nb29 alone Log[M] -5
  α1AAR activation (Noradrenaline %): 10.7076% and 10.0868% and 10.3298%
[4]; Nb29 alone Log[M] -6
  α1AAR activation (Noradrenaline %): 8.0538% and 8.0467% and 7.523%
[4]; Nb29 alone Log[M] -7
  α1AAR activation (Noradrenaline %): 5.836% and 5.21% and 5.469%
[4]; Nb29 alone Log[M] -8
  α1AAR activation (Noradrenaline %): 4.832% and 4.868% and 5.077%
[4]; Nb29 alone Log[M] -9
  α1AAR activation (Noradrenaline %): 4.7489% and 4.768% and 4.504%
[4]; Nb29 alone Log[M] -10
  α1AAR activation (Noradrenaline %): 4.612% and 4.823% and 4.852%
[4]; Nb29 alone Log[M] -11
  α1AAR activation (Noradrenaline %): 4.776% and 4.958% and 4.729%
[5]
  Ki: 4.9 µM
